Laboratory results: patent US20250215103A1 (Hoffmann-La Roche, published 2025)

Key:
Test in all cases: cell-based or functional assay
[1] = target: T1, human PD1 on cells (Jurkat cells expressing human PD1; activated human T cells) (human, UniProt Q15116 25-288)
[2] = target: T1, human PD1 on cells (Jurkat cells …); remark: listed apart in the source
[3] = target: T1, human PD1 on cells (Jurkat cells …); remark: listed apart in the source

T1 sequence (Q15116 25-288 limits assumed): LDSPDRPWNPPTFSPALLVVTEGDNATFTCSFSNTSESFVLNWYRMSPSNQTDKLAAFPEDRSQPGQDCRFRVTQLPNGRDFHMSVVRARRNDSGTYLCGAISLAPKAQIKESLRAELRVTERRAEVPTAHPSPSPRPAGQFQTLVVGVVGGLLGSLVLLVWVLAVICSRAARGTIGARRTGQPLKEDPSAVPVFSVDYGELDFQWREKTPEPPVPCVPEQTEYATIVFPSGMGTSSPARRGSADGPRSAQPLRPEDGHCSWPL

EC50 (pM) of Granzyme B production, mMLR [1] [pM] | Fold activity vs. control (EC50 of Granzyme B, mMLR), control PD1-0103-0312 [2] [fold vs PD1-0103-0312] | Fold activity vs. control (EC50 of Granzyme B, mMLR), control 8158 [3] [fold vs 8158] | Fold activity vs. control (EC50 of Granzyme B, mMLR), control 8159 [3] [fold vs 8159] | Binder
25.8 | 7.83 | 4.44 | – | bispecific 2+1 CrossMab 8156 (PD1-0103-0312/TfR(51A165) BBB-format) (bispecific antibody, human IgG1, kappa, L234A L235A) light 1: EVQLLESGGGLVQPGGSLRLSCAASGFSFSSYTMSWVRQAPGKGLEWVATISGGGRDIYYPDSVKGRFTISRDNSKNTLYLQMNSLRAEDTAVYYCVLLTGRVYFALDSWGQGTLVTVSSASVAAPSVFIFPPSDEQLKSGTASVVCLLNNFYPREAKVQWKVDNALQSGNSQESVTEQDSKDSTYSLSSTLTLSKADYEKHKVYACEVTHQGLSSPVTKSFNRGEC light 2: QIVLTQSPAIMSASPGEKVTVTCSASSSIRYMHWYQQKPGTSPKRWIYDTSELASGVPARFSGSGSGTSYSLTINSMEAEDAATYYCHQRSSYPFTFGGGTKLEIKRTVAAPSVFIFPPSDRKLKSGTASVVCLLNNFYPREAKVQWKVDNALQSGNSQESVTEQDSKDSTYSLSSTLTLSKADYEKHKVYACEVTHQGLSSPVTKSFNRGEC heavy 1: DIVMTQSPDSLAVSLGERATINCKASESVDTSDNSFIHWYQQKPGQSPKLLIYRSSTLESGVPDRFSGSGSGTDFTLTISSLQAEDVAVYYCQQNYDVPWTFGQGTKVEIKSSASTKGPSVFPLAPSSKSTSGGTAALGCLVKDYFPEPVTVSWNSGALTSGVHTFPAVLQSSGLYSLSSVVTVPSSSLGTQTYICNVNHKPSNTKVDKKVEPKSCDKTHTCPPCPAPEAAGGPSVFLFPPKPKDTLMISRTPEVTCVVVDVSHEDPEVKFNWYVDGVEVHNAKTKPREEQYNSTYRVVSVLTVLHQDWLNGKEYKCKVSNKALGAPIEKTISKAKGQPREPQVCTLPPSRDELTKNQVSLSCAVKGFYPSDIAVEWESNGQPENNYKTTPPVLDSDGSFFLVSKLTVDKSRWQQGNVFSCSVMHEALHNHYTQKSLSLSPGKGGGGSGGGGSEVQLQQSGPELVKPGASVKMSCKASGYTFTSYVMHWVKQKPGQGLEWIGYVNPYNDDTKYNEKFRGKATLTSDKSSSTAYMELSSLTSEDSAVYYCARSYYYYSMDNWGQGTSVTVSSASTKGPSVFPLAPSSKSTSGGTAALGCLVEDYFPEPVTVSWNSGALTSGVHTFPAVLQSSGLYSLSSVVTVPSSSLGTQTYICNVNHKPSNTKVDEKVEPKSCD heavy 2: not shown
12 | 6.6 | – | 16.3 | bispecific 2+1 CrossMab 8157 (PD1-0103-0312/TfR(51A165) TCB-format) (bispecific antibody, human IgG1, kappa, L234A L235A) light 1: EVQLLESGGGLVQPGGSLRLSCAASGFSFSSYTMSWVRQAPGKGLEWVATISGGGRDIYYPDSVKGRFTISRDNSKNTLYLQMNSLRAEDTAVYYCVLLTGRVYFALDSWGQGTLVTVSSASVAAPSVFIFPPSDEQLKSGTASVVCLLNNFYPREAKVQWKVDNALQSGNSQESVTEQDSKDSTYSLSSTLTLSKADYEKHKVYACEVTHQGLSSPVTKSFNRGEC light 2: QIVLTQSPAIMSASPGEKVTVTCSASSSIRYMHWYQQKPGTSPKRWIYDTSELASGVPARFSGSGSGTSYSLTINSMEAEDAATYYCHQRSSYPFTFGGGTKLEIKRTVAAPSVFIFPPSDRKLKSGTASVVCLLNNFYPREAKVQWKVDNALQSGNSQESVTEQDSKDSTYSLSSTLTLSKADYEKHKVYACEVTHQGLSSPVTKSFNRGEC heavy 1: DIVMTQSPDSLAVSLGERATINCKASESVDTSDNSFIHWYQQKPGQSPKLLIYRSSTLESGVPDRFSGSGSGTDFTLTISSLQAEDVAVYYCQQNYDVPWTFGQGTKVEIKSSASTKGPSVFPLAPSSKSTSGGTAALGCLVKDYFPEPVTVSWNSGALTSGVHTFPAVLQSSGLYSLSSVVTVPSSSLGTQTYICNVNHKPSNTKVDKKVEPKSCDGGGGSGGGGSEVQLQQSGPELVKPGASVKMSCKASGYTFTSYVMHWVKQKPGQGLEWIGYVNPYNDDTKYNEKFRGKATLTSDKSSSTAYMELSSLTSEDSAVYYCARSYYYYSMDNWGQGTSVTVSSASTKGPSVFPLAPSSKSTSGGTAALGCLVEDYFPEPVTVSWNSGALTSGVHTFPAVLQSSGLYSLSSVVTVPSSSLGTQTYICNVNHKPSNTKVDEKVEPKSCDKTHTCPPCPAPEAAGGPSVFLFPPKPKDTLMISRTPEVTCVVVDVSHEDPEVKFNWYVDGVEVHNAKTKPREEQYNSTYRVVSVLTVLHQDWLNGKEYKCKVSNKALGAPIEKTISKAKGQPREPQVCTLPPSRDELTKNQVSLSCAVKGFYPSDIAVEWESNGQPENNYKTTPPVLDSDGSFFLVSKLTVDKSRWQQGNVFSCSVMHEALHNHYTQKSLSLSP heavy 2: not shown
